System: neonatal mouse calvaria
Assay: Neonatal calvaria organ culture assay (histomorphometry)
Format: cell-based
Protocol: Applicants used mouse neonatal calvaria organ culture assay to examine possible roles for Ccdc80 in bone formation/resorption. Neonatal mouse calvaria were prepared from 4-day-old pups as described previously (Traianedes K et al., Endocrinology 139:3178-84 (1998); Mundy G et al., Science 286:1946-49 (1999)). Briefly, calvaria were excised and cut in half along the sagittal suture. Each half calvaria was placed with the concave surface downward on a stainless steel grid (Small Parts, Inc., Miami, Fla.) in a 12-well tissue culture dish (Becton Dickinson, Oxnard, Calif.). Calvaria were pre-incubated overnight in serum-free BGJ medium with 0.1% BSA. Each well contained 1 ml of BGJ medium. After pre-incubation, calvaria were incubated for 7 days in BGJ medium containing 1% FBS without or with test samples. Calvaria in 12-well plates were incubated in a humidified atmosphere of 95% air and 5% CO2. Fresh test samples were added at the time of medium change on day 4.
After organ culture, calvaria were fixed in 10% neutral phosphate-buffered formaldehyde at room temperature for 72 hours, then decalcified for 5-6 hours in 10% EDTA in PBS. Calvaria in each group were embedded in parallel in the same paraffin block, and 4 μm sections were stained with hematoxylin-eosin. Consistent bone areas (200 μm away from frontal sutures) were selected for histomorphometric analysis. In brief, a 200 μm square grid was placed on each calvaria, and the number of osteoblasts and total bone area were determined with the Osteomeasure System (Osteometrics Inc., Atlanta, Ga.). All cells on the bone surface were counted as osteoblasts.
For this experiment, calvaria were prepared from 4-day old neonatal pups. Calvaria then were incubated for 7 days without (Control), or with serial dilutions of FLAG-purified Ccdc80 protein as shown in FIG. 4. Medium was changed on day 4. After organ culture, calvaria were fixed in 10% neutral phosphate buffered formaldehyde, embedded in paraffin block, sectioned at 4 μm, and stained with hematoxylin and Eosin for histomorphoemetric analysis.

[1] = 1% FLAG-purified Ccdc80 protein, 7 days

B1: FLAG-purified Ccdc80 protein: C-terminally FLAG-tagged human Ccdc80 purified from conditioned medium using anti-FLAG M2 affinity beads (protein)
chain: EPHPHATIRGSHGGRKVPLVSPDSSRPARFLRHTGRSRGIERSTLEEPNLQPLQRRRSVPVLRLARPTEPPARSDINGAAVRPEQRPAARGSPREMIRDEGSSARSRMLRFPSGSSSPNILASFAGKNRVWVISAPHASEGYYRLMMSLLKDDVYCELAERHIQQIVLFHQAGEEGGKVRRITSEGQILEQPLDPSLIPKLMSFLKLEKGKFGMVLLKKTLQVEERYPYPVRLEAMYEVIDQGPIRRIEKIRQKGFVQKCKASGVEGQVVAEGNDGGGGAGRPSLGSEKKKEDPRRAQVPPTRESRVKVLRKLAATAPALPQPPSTPRATTLPPAPATTVTRSTSRAVTVAARPMTTTAFPTTQRPWTPSPSHRPPTTTEVITARRPSVSENLYPPSRKDQHRERPQTTRRPSKATSLESFTNAPPTTISEPSTRAAGPGRFRDNRMDRREHGHRDPNVVPGPPKPAKEKPPKKKAQDKILSNEYEEKYDLSRPTASQLEDELQVGNVPLKKAKESKKHEKLEKPEKEKKKKMKNENADKLLKSEKQMKKSEKKSKQEKEKSKKKKGGKTEQDGYQKPTNKHFTQSPKKSVADLLGSFEGKRRLLLITAPKAENNMYVQQRDEYLESFCKMATRKISVITIFGPVNNSTMKIDHFQLDNEKPMRVVDDEDLVDQRLISELRKEYGMTYNDFFMVLTDVDLRVKQYYEVPITMKSVFDLIDTFQSRIKDMEKQKKEGIVCKEDKKQSLENFLSRFRWRRRLLVISAPNDEDWAYSQQLSALSGQACNFGLRHITILKLLGVGEEVGGVLELFPINGSSVVEREDVPAHLVKDIRNYFQVSPEYFSMLLVGKDGNVKSWYPSPMWSMVIVYDLIDSMQLRRQEMAIQQSLGMRCPEDEYAGYGYHSYHQGYQDGYQDDYRHHESYHHGYPY
modifications: left off: small tags and cut ends
- bone resorption (histologically) [1]: enhanced
- number of osteoblasts [1]: not significantly altered
- osteoblast activation [1]: activated
- increase in total bone area (1% FLAG-purified Ccdc80 protein, 7 days, P<0.0001): 62%
- osteogenic activities (purified protein sample diluted as low as 0.01%, 7 days): clearly observed
- number of osteoblasts (summary) (summary statement): unaltered
- osteoblast activation (summary) (summary statement): activated osteoblasts
